According to patent US10189887B2, “Polypeptides and uses thereof for reducing CD95-mediated cell motility” (INSERM (INSTITUT NATIONAL DE LA SANTÉ ET DE LA RECHERCHE …, priority 2014, dated 2019):

Legend:
MDA-MB-231 = test: Boyden chamber migration of triple negative breast cancer cells; format: cell-based; settings: MDA-MB-231 pre-incubated 1 hour with 10 μM; cl-CD95L 100 ng/mL for 24 h
Protocol: Boyden chambers contained membranes with a pore size of 8 μm (Millipore, Molsheim, France). After hydration of the membranes, breast cancer cells (10^5 cells per chamber) were added to the top chamber in low serum (1%)-containing medium. The bottom chamber was filled with low serum (1%)-containing medium in the presence or absence of cl-CD95L (100 ng/mL). Cells were cultured for 24 h at 37° C. To quantify migration, cells were mechanically removed from the top-side of the membrane using a cotton-tipped swab, and migrating cells from the reverse side were fixed with methanol and stained with Giemsa. For each experiment, five representative pictures were taken for each insert, then cells were lyzed and absorbance at 560 nm correlated to the amount of Giemsa stain was measured.

CD95/PLCγ1 = biological target: T1, CD95/PLCγ1 (Homo sapiens, UniProt P19174); test: PLCγ1 recruitment to CD95 (immunoprecipitation and immunoblotting); format: cell-based
T1 construct: endogenous in cells; host or cells: CEM (human leukemic T-cell line)
T1 sequence (P19174 2-1290 limits assumed): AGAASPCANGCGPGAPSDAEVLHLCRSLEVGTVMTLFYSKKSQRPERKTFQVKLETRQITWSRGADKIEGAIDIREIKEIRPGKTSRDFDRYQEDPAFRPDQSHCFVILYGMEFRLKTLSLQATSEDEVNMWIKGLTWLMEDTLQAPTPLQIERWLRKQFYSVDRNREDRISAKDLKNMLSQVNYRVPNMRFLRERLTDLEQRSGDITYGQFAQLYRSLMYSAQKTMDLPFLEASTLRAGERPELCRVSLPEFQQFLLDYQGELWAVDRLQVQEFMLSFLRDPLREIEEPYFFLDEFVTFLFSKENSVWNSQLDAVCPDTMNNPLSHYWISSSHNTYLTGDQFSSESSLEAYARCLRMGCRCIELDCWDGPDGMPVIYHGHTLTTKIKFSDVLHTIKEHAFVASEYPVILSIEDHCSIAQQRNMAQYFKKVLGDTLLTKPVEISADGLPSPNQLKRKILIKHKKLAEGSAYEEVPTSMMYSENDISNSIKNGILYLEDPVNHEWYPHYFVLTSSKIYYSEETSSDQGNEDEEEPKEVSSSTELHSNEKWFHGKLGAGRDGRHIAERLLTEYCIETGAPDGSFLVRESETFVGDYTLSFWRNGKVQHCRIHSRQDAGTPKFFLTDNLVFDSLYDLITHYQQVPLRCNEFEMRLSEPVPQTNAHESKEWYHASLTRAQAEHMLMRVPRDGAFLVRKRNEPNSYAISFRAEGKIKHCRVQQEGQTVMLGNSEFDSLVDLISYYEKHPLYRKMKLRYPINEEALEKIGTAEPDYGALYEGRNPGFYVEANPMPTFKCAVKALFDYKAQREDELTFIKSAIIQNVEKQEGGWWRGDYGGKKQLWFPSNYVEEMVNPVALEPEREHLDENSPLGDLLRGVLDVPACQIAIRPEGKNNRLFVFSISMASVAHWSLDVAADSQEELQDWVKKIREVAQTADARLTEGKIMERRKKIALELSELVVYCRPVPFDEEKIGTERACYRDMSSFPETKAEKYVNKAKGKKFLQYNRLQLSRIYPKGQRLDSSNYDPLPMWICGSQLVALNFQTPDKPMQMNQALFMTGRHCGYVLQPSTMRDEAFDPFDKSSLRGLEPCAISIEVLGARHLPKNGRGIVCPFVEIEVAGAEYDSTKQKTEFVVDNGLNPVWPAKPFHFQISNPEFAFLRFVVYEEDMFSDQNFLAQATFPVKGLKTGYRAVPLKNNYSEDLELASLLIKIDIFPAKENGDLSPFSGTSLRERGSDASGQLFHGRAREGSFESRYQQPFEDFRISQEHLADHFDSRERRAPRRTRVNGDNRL
Protocol: T-cells (5×10^7 cells per condition) were stimulated with Ig-CD95L or cl-CD95L (100 ng/mL) for indicated times at 37° C. Cells were lysed, incubated with APO1.3 (1 ug/mL) for 15 min at 4° C. and CD95 was immunoprecipitated using A/G protein-coupled magnetic beads (Ademtech, Pessac, France) for 1 h. After extensive washing, the immune complex was resolved by SDS-PAGE and immunoblotting was performed with indicated antibodies.
Cells were lyzed for 30 minutes at 4° C. in lysis buffer (25 mM HEPES pH 7.4, 1% v/v Triton X-100, 150 mM NaCl, 2 mM EGTA supplemented with a mix of protease inhibitors (Sigma-Aldrich)). Protein concentration was determined by the bicinchoninic acid method (PIERCE, Rockford, Ill., USA) according to the manufacturer's protocol. Proteins were separated on a 12% SDS-PAGE and transferred to a nitrocellulose membrane (GE Healthcare, Buckinghamshire, England). The membrane was blocked 15 minutes with TBST (50 mM Tris, 160 mM NaCl, 0.05% v/v Tween 20, pH 7.8) containing 5% w/v dried skimmed milk (TBSTM). Primary antibody was incubated overnight at 4° C. in TBSTM. The membrane was intensively washed (TBST) and then the peroxydase-labeled anti-rabbit or anti-mouse (SouthernBiotech, Birmingham, Ala., US) was added for 45 minutes. The proteins were visualized with the enhanced chemiluminescence substrate kit (ECL, GE Healthcare).

Substance: TAT-CID: cell penetrating peptide linking the 36-amino acid-stretch of CID (CD95 residues 175 to 210) to the HIV-TAT sequence; SEQ ID NO: 6 (RKKRRQRRRKRKEVQKTCRKHRKENQGSHESPTLNPETVAINLSD; TAT-CID)
- cell migration (Boyden chamber assay) (MDA-MB-231): inhibits migration
- PLCγ1 recruitment to CD95 (CD95/PLCγ1; T cell lines Jurkat and CEM pre-incubated 1 h with 10 μM, cl-CD95L 100 ng/mL): impaired PLCγ1 recruitment
- PLCγ1 binding to CD95 (CD95/PLCγ1; activated T lymphocytes from healthy subjects, pre-incubation): inhibited the PLCγ1 binding to CD95
